Results on 9 molecules are retold here after patent US9801923B2, “Fusion proteins containing insulin-like growth factor-1 and epidermal growth factor and variants thereof and uses thereof” (IGF Oncology, LLC, priority 2014, dated 2017).

Data set [1] deals with A-431 human epithelial carcinoma cells. The experiment in a line: in vitro proliferation inhibition of A-431 cells. The following applies: 4 days with drug. The format is cell-based. As to the method: A-431 human epithelial carcinoma cells were seeded at 5,000 cells per well in 96-well plates and grown for 1 day. A-431 cells have abundant EGF receptors. After 1 day growth, free bendamustine and 765EGF-bendamustine were added to the plate at concentrations ranging from 200 micromolar bendamstine to 6 nM and from 20 microEq/L 765EGF-bendamustine down to 0.6 nM. The plates were incubated with drug at 37 degrees C. under a humidified 5% CO2 atmosphere for 4 days, and then DOJINDO cell counting kit-8 reagent was added to wells to read proliferation. The plates were read according to manufacturer's instruction. There was a huge difference between free bendamustine and EGF-bendamustine. […] The difference in effectiveness was more than 1000-fold expressed in terms of the concentration of bendamustine groups.

In a further data set the test system is L929 cells. Briefly: 765TNFa activity assay, killing of L929 cells. The format is cell-based. To be noted: 24 hours. How it is done: L929 cells were plated at 10,000 cells per well in two 96-well plates in their recommended growth medium with 2% fetal bovine serum. They were grown for 2 days at 37° C. in a 5% CO2 humidified atmosphere. In one plate, after the 2 days incubation 1 ug/ml final concentration actinomycin D was added; in the other plate no actinomycin D was added. 765TNFa was then added at a range of concentrations. Plates were incubated 24 hours more. Then cell viability was quantified with DOJINDO cell counting kit-8 according to manufacturer's instructions. […] These are even lower IC50s than are reported in the literature for TNF-alpha.

Data set [2] concerns MCF-7 tumor cells. The experiment in a line: in vitro cytotoxicity assay, inhibition of proliferation of MCF-7 tumor cells. The format is cell-based. The following applies: Homo sapiens, MCF7, read-out: IC50 (concentration needed for 50% inhibition of cell proliferation).
Description: Five-thousand MCF7 cells were plated per well in a 96-well test plate in 100 ul of rich media on day 0. A shadow plate was made for each test plate, with each well of the shadow plate containing media or 3× the intended final concentration of test agent in media in each well. As a negative control, media is used. […] After making the shadow plate, 50 ul is transferred from each well of the shadow plate to the corresponding well of the test plate to generate the final concentrations of test agent in the wells of the test plate. Cell proliferation is determined by adding Dojindo CCK-8 reagent and incubating and measuring absorbance of the dye according to the manufacturer's instructions.
The next data set deals with IGF receptors (Homo sapiens, UniProt P08069). Briefly: competition binding of refolded IGF fusion proteins to IGF receptors against radioactive wild type IGF. To be noted: Ni eluates refolded 3 hours at room temperature, read-out: approximate binding constants (KDs). As to the method:
2 ml of each of the original Ni eluates from Example 1 was mixed with about an equal volume of 100 mM glycine, 6 M urea, pH 9.5, concentrated by ultrafiltration in a CENTRICON 3 kDa filter unit, then brought up again in that buffer and concentrated to about 420 ul. Then they were diluted to 2 mg/ml for 403IGF, 764IGF, and 765IGF, and 4 mg/ml for 784IGF and 2.4 mg/ml for 785IGF.
200 ul of each of these was mixed rapidly with 1.8 ml of refold buffer. Refold buffer was 1.4 M urea, 100 mM glycine, 0.5 M NaCl, 19% ethanol, 0.5 mM GSSG, 4 mM GSH, pH 9.5. They were refolded at room temperature for 3 hours, and then tested in a binding assay for competition binding to IGF receptors against […] radioactive wild type IGF (Perkin Elmer, Inc.) For comparison, commercial Long-R3-IGF (LR3IGF) was also tested.

The target in data set [3] is T1, type 1 IGF receptors on MCF7 cells (Homo sapiens, UniProt P08069).
T1 construct: type 1 IGF receptors that are abundant on MCF7 cells; host or cells: MCF7
Briefly: 765IGF binding assay to IGF-1 receptor on MCF7 cells (125I IGF-1 competition). The following applies: overnight at 4° C. How it is done: Theory of assay: Radioactive ^125I labeled insulin-like growth factor-1 (IGF-1) competes with a test ligand for binding to type 1 IGF receptors that are abundant on MCF7 cells (a human breast cancer cell line) in vitro.
MCF7 cell media: 500 mL MEM, 0.01 mg/mL bovine insulin; 5 mL sodium pyruvate, 5 mL non-essential amino acids, 10 mL sodium bicarbonate, 10 mL fetal bovine serum, 5 mL penicillin/streptomycin.
MCF7 cells (ATCC HTB-22) were plated at 20,000 cells per well in a volume of 0.5 mL/well in a 48-well tissue culture plate (flat bottom with low evaporation lid) and placed in a cell culture incubator set at 37° C. with 5% CO2. After 2-3 days in culture the plates were washed 2× with 0.5 mL per well of cold binding assay buffer (100 mM Hepes-NaOH, pH 7.2; 120 mM NaCl; 5 mM KCl; 1.2 mM MgSO4; 0.1% BSA). After the final wash, 0.5 mL of binding assay buffer was added to each well and the plates are placed at 4° C. for 2 to 6 hours.
Test ligands were prepared at a concentration of 10 micromolar (long-R3-IGF) or 20 micromolar (765IGF and IGF-MTX) in 5 mM HCl in a volume of 200 ul. To determine the concentration, the molecular weight of 765IGF (9742 daltons) and long-R3-IGF (9111 daltons) are used. […]
The plates were then incubated overnight at 4° C. […] Cells were lysed with 0.5 mL 300 mM NaOH, 1% SDS and the lysates were counted on a gamma counter.

Data set [4] addresses T2, dihydrofolate reductase (DHFR) (Homo sapiens, UniProt P00374).
T2 construct: purchased Sigma-Aldrich
T2 sequence (P00374 1-187): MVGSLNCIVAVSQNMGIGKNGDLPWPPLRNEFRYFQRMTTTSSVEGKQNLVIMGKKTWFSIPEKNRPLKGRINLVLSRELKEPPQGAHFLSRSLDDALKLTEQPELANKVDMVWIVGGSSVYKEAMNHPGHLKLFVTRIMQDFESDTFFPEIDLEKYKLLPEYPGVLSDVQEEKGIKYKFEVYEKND
The experiment in a line: inhibition of dihydrofolate reductase (Sigma-Aldrich assay kit). Type of data set: biochemical. How it is done:
The experiments were done with the dihydrofolate reductase assay kit from Sigma-Aldrich (St. Louis, Mo., USA), according to the manufacturer's instructions. In the assay dihydrofolate reductase is mixed with pH 7.5 buffer. […] It was incubated for 30 seconds to allow inhibitor binding. Then NADPH is added to 50 uM final concentration, and then dihydrofolic acid is added to 60 uM final concentration. The reaction is monitored by measuring absorbance at 340 nm.

Data set [5] relates to MCF-7 tumor cells. To be noted: for comparison, McTavish et al., 2009; cited from earlier work.
Data set [6] is classed as physicochemical. An excerpt:
These smaller fragments are seen on SDS-PAGE.

Where two headings read alike, the source gives them in different places.

Chain of IGF receptors (P08069 31-736 limits assumed): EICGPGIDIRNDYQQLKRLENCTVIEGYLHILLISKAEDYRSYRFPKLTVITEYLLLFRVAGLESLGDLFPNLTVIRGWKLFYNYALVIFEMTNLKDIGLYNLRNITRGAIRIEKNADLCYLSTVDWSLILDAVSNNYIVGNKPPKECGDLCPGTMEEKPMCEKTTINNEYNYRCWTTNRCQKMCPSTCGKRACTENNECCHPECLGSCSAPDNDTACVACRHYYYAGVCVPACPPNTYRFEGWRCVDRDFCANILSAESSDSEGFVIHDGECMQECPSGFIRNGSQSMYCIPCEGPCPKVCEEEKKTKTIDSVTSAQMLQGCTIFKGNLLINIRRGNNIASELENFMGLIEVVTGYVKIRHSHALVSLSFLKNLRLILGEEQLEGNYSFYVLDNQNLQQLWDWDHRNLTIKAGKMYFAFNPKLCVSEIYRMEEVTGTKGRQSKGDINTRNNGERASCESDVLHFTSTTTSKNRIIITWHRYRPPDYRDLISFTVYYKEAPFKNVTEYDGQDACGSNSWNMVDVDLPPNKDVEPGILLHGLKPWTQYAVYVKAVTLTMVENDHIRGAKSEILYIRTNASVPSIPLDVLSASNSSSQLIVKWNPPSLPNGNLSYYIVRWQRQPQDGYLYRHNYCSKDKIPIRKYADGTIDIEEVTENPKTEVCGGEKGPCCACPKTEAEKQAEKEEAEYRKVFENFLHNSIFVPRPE
Chain of IGF receptors (P08069 741-1367 partner limits assumed): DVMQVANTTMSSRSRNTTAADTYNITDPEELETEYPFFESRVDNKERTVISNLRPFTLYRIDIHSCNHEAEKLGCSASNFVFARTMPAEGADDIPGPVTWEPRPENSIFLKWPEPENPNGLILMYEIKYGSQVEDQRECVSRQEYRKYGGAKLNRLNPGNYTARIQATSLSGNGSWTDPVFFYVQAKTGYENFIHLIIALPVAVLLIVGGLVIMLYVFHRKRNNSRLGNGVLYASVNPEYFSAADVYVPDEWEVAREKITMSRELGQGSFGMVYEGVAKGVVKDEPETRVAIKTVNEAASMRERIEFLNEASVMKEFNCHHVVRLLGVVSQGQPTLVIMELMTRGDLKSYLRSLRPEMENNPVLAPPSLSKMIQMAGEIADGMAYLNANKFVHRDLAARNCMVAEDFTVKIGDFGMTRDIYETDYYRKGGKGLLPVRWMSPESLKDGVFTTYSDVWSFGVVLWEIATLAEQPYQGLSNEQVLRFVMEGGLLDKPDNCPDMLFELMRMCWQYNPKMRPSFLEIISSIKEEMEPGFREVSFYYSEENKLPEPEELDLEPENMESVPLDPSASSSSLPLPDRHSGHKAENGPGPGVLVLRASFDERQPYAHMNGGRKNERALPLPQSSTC
T1 sequence (P08069 31-736 limits assumed): as the sequence (P08069 31-736 limits assumed) above
T1 sequence (P08069 741-1367 partner limits assumed): as the sequence (P08069 741-1367 partner limits assumed) above

On to `Cn1c(CCCC(=O)O)nc2cc(N(CCCl)CCCl)ccc21` [bendamustine], for which the “concentration above which proliferation was inhibited” value in data set [1] is “above 10 micromolar”. The IC50 in data set [1] (Homo sapiens, 96 h) was ~90000 nM.
Take “765TNFa: soluble form of tumor necrosis factor alpha fused to SEQ ID NO:1 leader, SEQ ID NO:17”: the “IC50 for killing the cells” value is “less than 79 pg/ml” with L929 cells (L929 cells with 1 ug/ml actinomycin) and “about 70 ng/ml” in the data set with L929 cells (L929 cells with no actinomycin).
`CN(Cc1cnc2nc(N)nc(N)c2n1)c1ccc(C(=O)N[C@@H](CCC(=O)O)C(=O)O)cc1` [Methotrexate, methotrexate]: the IC50 with MCF-7 tumor cells [2] turned out to be 88 nM.

B1: 764IGF: His6-K5-IGF132 fusion protein, SEQ ID NO: 18 (protein)
chain: MVKGKHHHHHHNGKGKSKFVNQHLCGSHLVEALYLVCGDRGFYFNKPTGYGSSSRRAPQTGIVDECCFRSCDLRRLEMYCAPLKPAKSA
Consider B1, for which the Kd with IGF receptors is ~100 nM.

B2: LR3IGF: commercial Long-R3-IGF variant of IGF-1 (Sigma Aldrich), SEQ ID NO:5 (protein)
chain: MFPAMPLSSLFVNGPRTLCGALVDALQFVCGDRGFYFNKPTGYGSSSRRAPQTGIVDECCFRSCDLRRLEMYCAPLKPAKSEA
Regarding B2, the values for the Kd (in the data set with IGF receptors; in data set [3]) were ~1 nM and ~3 nM, respectively.

B3: LR3IGF-MTX (conjugate)
chain: MFPAMPLSSLFVNGPRTLCGALVDALQFVCGDRGFYFNKPTGYGSSSRRAPQTGIVDECCFRSCDLRRLEMYCAPLKPAKSEA
As for B3, the IC50 in data set [4] (DHFR, concentration of conjugated MTX groups, read-out: IC50) was 99 nM; in data set [4] (IC50 in nEq/L divided by MTX per IGF, read-out: inhibition constant in terms of protein concentration) it was 35 nM; in the data set with MCF-7 tumor cells [5], ~400 nM.

B4: IGF132: variant of IGF-1 with reduced binding to soluble IGF binding proteins, SEQ ID NO:4 (protein)
chain: FVNQHLCGSHLVEALYLVCGDRGFYFNKPTGYGSSSRRAPQTGIVDECCFRSCDLRRLEMYCAPLKPAKSA
In the case of B4, in data set [6], the stability to storage entry was “breaks down to produce a significant amount of smaller molecular weight fragments”.

B5: 785IGF: mutTrx-IGF132 fusion protein, SEQ ID NO: 16 (protein)
chain: MVKQIESKTAFQEALDAAGDKLVVVDFSATWCGHCKMIKPFFHSLSEKYSNVIFLEVDVDDSQDVASESEVKSMPTFQFFKKGQKVGEFSGANKEKLEATINELVGSKSGHHHHHHSAKGFVNQHLCGSHLVEALYLVCGDRGFYFNKPTGYGSSSRRAPQTGIVDECCFRSCDLRRLEMYCAPLKPAKSA
On to B5, for which the Kd in the data set with IGF receptors is ~40 nM.

B6: 403IGF: His6-IGF fusion protein, SEQ ID NO: 14 (protein)
chain: MTSGHHHHHHSAGVNGFVNQHLCGSHLVEALYLVCGDRGFYFNKPTGYGSSSRRAPQTGIVDECCFRSCDLRRLEMYCAPLKPAKSA
As for B6, the Kd with IGF receptors was ~2 nM.
